According to patent US20030092067A1:

Key:
[1] = molecular target: Abz-Deg-Ala-Nle-Ser-Tyr(NO2)-Asp-NH2
[2] = molecular target: Bz-Val-Ala-Nle-Ser-Tyr(NO2)-NH2
[3] = molecular target: Abz-Lys-Ala-hLeu-Ser-Tyr(NO2)-Asp-NH2
[4] = molecular target: Abz-Glu-Val-Ala-Nle-Ser-Tyr(NO2)-Asp-NH2
[5] = molecular target: H-Val-Ala-Nle-Ser-TyrNO2-ASp-NH2
[6] = molecular target: Chex-Val-Ala-Nle-Ser-Tyr(NO2)-NH2
[7] = molecular target: Abz-Val-Ala-(NMe)Nle-Ser-Tyr(NO2)-Asp-NH2
[8] = molecular target: Abz-Leu-Ala-hLeu-Ser-Tyr(NO2)-Asp-NH2
[9] = molecular target: Abz-Val-Ala-3pyr-Ser-Tyr(NO2)-Asp-NH2
[10] = molecular target: Abz-Val-DAla-hLeu-Ser-Tyr(NO2)-Asp-NH2
[11] = molecular target: Abz-ACH-Ala-hLeu-Ser-Tyr(NO2)-Asp-NH2
[12] = molecular target: Bz(2-carboxy)-Val-Ala-Nle-Ser-Tyr(NO2)-NH2
[13] = molecular target: Abz-Val-Ala-Thr-Ser-Tyr(NO2)-Asp-NH2
[14] = molecular target: Abz-Val-Ala-Nle-Ser-Tyr(NO2)-NH2
[15] = molecular target: Abz-Bip-Val-Ala-Nle-Ser-Tyr(NO2)-Asp-NH2
[16] = molecular target: Abz-Bip-Ala-hLeu-Cha-Tyr(NO2)-Asp-NH2
[17] = molecular target: Abz-Val-Ala-Aib-Ser-Tyr(NO2)-Asp-NH2
[18] = molecular target: Abz-Val-Ala-ACH-Ser-Tyr(NO2)-Asp-NH2
[19] = molecular target: Abz-Val-Ala-Hyp-Ser-Tyr(NO2)-Asp-NH2
[20] = molecular target: Abz-3.Pyr-Val-Ala-Nle-Ser-Tyr(NO2)-Asp-NH2
[21] = molecular target: Abz-Tic-Ala-hLeu-Ser-Tyr(NO2)-Asp-NH2
[22] = molecular target: Abz-Val-2Nal-hLeu-Ser-Tyr(NO2)-Asp-NH2
[23] = molecular target: Ac-Val-Ala-Nle-Ser-Tyr(NO2)-NH2
[24] = molecular target: Abz-Val-Ala-Nle-Ser-Tyr(NO2)-Asp-NH2
[25] = molecular target: Abz-Val-Cha-hLeu-Ser-Tyr(NO2)-Asp-NH2
[26] = molecular target: Abz-Val-Ala-Nle-Ser-NH2
[27] = molecular target: Abz-Val-Ala-Nle-Ser-Ala-Asp-NH2
[28] = molecular target: Abz-2Nal-Ala-hLeu-Ser-Tyr(NO2)-Asp-NH2
[29] = molecular target: Abz-2.Naph-Val-Ala-Nle-Ser-Tyr(NO2)-Asp-NH2
[30] = molecular target: Abz-Met(O)-Ala-hLeu-Ser-Tyr(NO2)-Asp-NH2
[31] = molecular target: Abz-Val-3pyr-hLeu-Ser-Tyr(NO2)-Asp-NH2
[32] = molecular target: Abz-Bip-Ala-hLeu-Ser-Tyr(NO2)-Asp-NH2
[33] = molecular target: Abz-Val-Ala-hLeu-Ser-Tyr(NO2)-Asp-NH2
[34] = molecular target: Piv-Val-Ala-Nle-Ser-Tyr(NO2)-NH2
[35] = molecular target: Abz-Bip-Ala-hLeu-Thr-Tyr(NO2)-Asp-NH2
[36] = molecular target: Abz-Bip-Ala-hLeu-Leu-Tyr(NO2)-Asp-NH2
[37] = molecular target: Abz-Ala-Nle-Ser-Tyr(NO2)-Asp-NH2
[38] = molecular target: nBu-D.Ser-D.Nle-D.Ala-D.Val-p.Aba-NH2
[39] = molecular target: Abz-Val-ACP-hLeu-Ser-Tyr(NO2)-Asp-NH2
[40] = molecular target: Abz-p.Aba-Nle-Ser-Tyr(NO2)-Asp-NH2
[41] = molecular target: Abz-Cha-Ala-hLeu-Ser-Tyr(NO2)-Asp-NH2
[42] = molecular target: H-Val-Ala-Nle-Ser-Tyr(NO2)-NH2
[43] = molecular target: n-Bu-Val-Ala-Nle-Ser-Tyr(NO2)-NH2
[44] = molecular target: Abz-Val-Aib-Nle-Ser-Tyr(NO2)-Asp-NH2
[45] = molecular target: Abz-Val-Tic-hLeu-Ser-Tyr(NO2)-Asp-NH2
[46] = molecular target: Abz-Val-Ala-ACP-Ser-Tyr(NO2)-Asp-NH2
[47] = molecular target: Abz-Bip-Ala-hLeu-Hyp-Tyr(NO2)-Asp-NH2
[48] = molecular target: Abz-Val-Ala-Nle-Ser-Lys-Asp-NH2
[49] = molecular target: Abz-Val-Ala-Cha-Ser-Tyr(NO2)-Asp-NH2
[50] = molecular target: H-Ala-Nle-Ser-Tyr(NO2)-Asp-NR2
[51] = molecular target: Abz-Val-Met(O)-hLeu-Ser-Tyr(NO2)-Asp-NH2
[52] = molecular target: Abz-Val-DLys-hLeu-Ser-Tyr(NO2)-Asp-NH2
[53] = molecular target: Abz-Val-(NMe)Ala-Nle-Ser-Tyr(NO2)-ASP-NH2
[54] = molecular target: Abz-Bip-Ala-hLeu-Abu-Tyr(NO2)-Asp-NH2
[55] = molecular target: Abz-Hyp-Val-Ala-Nle-Ser-Tyr(NO2)-Asp-NH2
[56] = molecular target: Bz-Val-Ala-Nle-Ser-Tyr(NO2)-NH2 (second printing, row r51)
[57] = molecular target: H-Ala-Nle-Ser-Tyr(NO2)-ASP-NH2
[58] = molecular target: Abz-Val-DGln-hLeu-Ser-Tyr(NO2)-Asp-NH2
[59] = molecular target: Abz-Val-Ala-Nle-Ser-Phe-Asp-NH2
[60] = molecular target: Abz-Bip-Ala-hLeu-3pyr-Tyr(NO2)-Asp-NH2
[61] = molecular target: Abz-Bip-Ala-hLeu-Bu^tGly-Tyr(NO2)-Asp-NH2
[62] = molecular target: Bz-Val-Ala-Statine-Ser-eAha-NH2
[63] = molecular target: Abz-Val-Ala-Nle-Ser-eAHA-Asp-NH2
[64] = molecular target: Abz-Bip-Ala-hLeu-Lys-Tyr(NO2)-Asp-NH2
[65] = molecular target: Abz-Cmpi-Nle-Ser-Tyr(NO2)-ASP-NH2
[66] = molecular target: Abz-Val-ACH-hLeu-Ser-Tyr(NO2)-Asp-NH2
[67] = molecular target: Abz-Bip-Ala-hLeu-Tyr-Tyr(NO2)-Asp-NH2
[68] = molecular target: Abz-Val-Ala-DNle-Ser-Tyr(NO2)-Asp-NH2
[69] = molecular target: Abz-Val-Ala-His-Ser-Tyr(NO2)-Aso-NH2
[70] = molecular target: Abz-1.Naph-Val-Ala-Nle-Ser-Tyr(NO2)-Asp-NH2
[71] = molecular target: Abz-Val-Ala-Lys-Ser-Tyr(NO2)-Asp-NH2
[72] = molecular target: Abz-Gln-Ala-hLeu-Ser-Tyr(NO2)-Asp-NH2
[73] = molecular target: Abz-DVal-Ala-hLeu-Ser-Tyr(NO2)-Asp-NH2
[74] = molecular target: Abz-Val-Ala-Gln-Ser-Tyr(NO2)-Asp-NH2
[75] = molecular target: Ac-Val-Ala-Nie-Ser-Tyr(NO2)-Asp-NH2
[76] = molecular target: Abz-3pyr-Ala-hLeu-Ser-Tyr(NO2)-Asp-NH2
[77] = molecular target: Abz-Lys-Val-Ala-Nle-Ser-Tyr(NO2)-Asp-NH2
[78] = molecular target: Abz-Val-Lys-hLeu-Ser-Tyr(NO2)-Asp-NH2
[79] = molecular target: Abz-Nle-Ser-Tyr(NO2)-Asp-NH2
[80] = molecular target: Abz-Phe-Val-Ala-Nle-Ser-Tyr(NO2)-Asp-NH2
[81] = molecular target: Abz-Bip-Ala-hLeu-Met(O)-Tyr(NO2)-Asp-NH2
[82] = molecular target: Abz-Bip-Ala-hLeu-Asp-Tyr(NO2)-Asp-NH2
[83] = molecular target: Abz-Val-Ala-Nle-Ser-Tyr-Asp-NH2

B1: Der pI (protein)
chain: TNACSINGNAPAEIDLRQMRTVTPIRMQGGCGSCWAFSGVAATESAYLAYRNQSLDLAEQELVDCASQHGCHGDTIPRGIEYIQHNGVVQESYYRYVAREQSCRRPNAQRFGISNYCQIYPPNVNKIREALAQTHSAIAVIIGIKDLDAFRHYDGRTIIQRDNGYQPNYHAVNIVGYSNAQGVDYWIVRNSWDTNWGDNGYGYFAANIDLMMIEEYPYVVIL
- Measured Km (µM) [1]: NS
- Measured Km (µM) [2]: NM^a
- cleavage rate (rank order) [2]: Bz>n-But>Piv>Bz(2-carboxy)>Abz
- Measured Km [3]: > 15 µM
- Measured Km [4]: 20 µM
- Measured Km (µM) [5]: NS
- Measured Km (µM) [6]: NM^a
- Measured Km (µM) [7]: NS
- Measured Km [8]: 18 µM
- Measured Km [9]: 10 µM
- Measured Km (µM) [10]: NS
- Measured Km (µM) [11]: NS
- Measured Km (µM) [12]: NM^a
- cleavage rate (rank order) [12]: Bz>n-But>Piv>Bz(2-carboxy)>Abz
- Measured Km [13]: 6 µM
- Measured Km (µM) [14]: NM
- cleavage rate (rank order) [14]: Bz>n-But>Piv>Bz(2-carboxy)>Abz
- Measured Km [15]: 10 µM
- Measured Km [16]: 2.5 µM
- Measured Km (µM) [17]: NS
- Measured Km (µM) [18]: NS
- Measured Km (µM) [19]: NS
- Measured Km (µM) [20]: NM
- Measured Km (µM) [21]: NS
- Measured Km (µM) [22]: NS
- Measured Km (µM) [23]: NS
- Measured Km [24]: 12 µM
- kcat/Km [24]: 35000 M⁻¹ s⁻¹
- Measured Km (µM) [25]: NS
- Measured Km (µM) [26]: NM
- Measured Km (µM) [27]: NM
- Measured Km [28]: 15 µM
- Measured Km (µM) [29]: NM
- Measured Km [30]: 20 µM
- Measured Km (µM) [31]: NS
- Measured Km [32]: 2.5 µM
- Measured Km [33]: 4 µM
- Measured Km (µM) [34]: NM^a
- cleavage rate (rank order) [34]: Bz>n-But>Piv>Bz(2-carboxy)>Abz
- Measured Km [35]: 2.5 µM
- Measured Km [36]: 3.7 µM
- Measured Km (µM) [37]: NM
- Measured Km (µM) [38]: NS
- Measured Km (µM) [39]: NS
- Measured Km (µM) [40]: NS
- Measured Km [41]: 9 µM
- Measured Km (µM) [42]: NS
- Measured Km (µM) [43]: NM^a
- cleavage rate (rank order) [43]: Bz>n-But>Piv>Bz(2-carboxy)>Abz
- Measured Km (µM) [44]: NS
- Measured Km (µM) [45]: NS
- Measured Km (µM) [46]: NS
- Measured Km [47]: 4 µM
- Measured Km (µM) [48]: NM
- Measured Km [49]: 5 µM
- Measured Km (µM) [50]: NS
- Measured Km [51]: 35 µM
- Measured Km (µM) [52]: NS
- Measured Km (µM) [53]: NS
- Measured Km [54]: 1.7 µM
- Measured Km (µM) [55]: NS
- Measured Km (µM) [56]: NM^a
- Measured Km (µM) [57]: NS
- Measured Km (µM) [58]: NS
- Measured Km (µM) [59]: NM
- Measured Km [60]: 4 µM
- Measured Km [61]: 4 µM
- Measured Km (µM) [62]: NS
- Measured Km (µM) [63]: NM
- Measured Km [64]: 2 µM
- Measured Km (µM) [65]: NS
- Measured Km (µM) [66]: NS
- Measured Km [67]: 3 µM
- Measured Km (µM) [68]: NS
- Measured Km [69]: > 20 µM
- Measured Km [70]: 17 µM
- Measured Km [71]: 14 µM
- Measured Km [72]: 12 µM
- Measured Km (µM) [73]: NS
- Measured Km [74]: 6 µM
- Measured Km (µM) [75]: NS
- Measured Km [76]: > 10 µM
- Measured Km [77]: 15 µM
- Measured Km [78]: 35 µM
- Measured Km (µM) [79]: NS
- Measured Km (µM) [80]: NM
- Measured Km [81]: 5 µM
- Measured Km [82]: 5 µM
- Measured Km (µM) [83]: NM
